Experimental data published in US20190008947A1.
“And” between values parts separate entries of the source, which are not always exact repeats. Equal values may be shown once. Read-outs that look alike come from different tables or passages of the source.

Key:
[1] = target: A*11:01, P04439; settings: modification not given
[2] = target: T1, A*03:01, P04439; settings: modification not given
T1 chain: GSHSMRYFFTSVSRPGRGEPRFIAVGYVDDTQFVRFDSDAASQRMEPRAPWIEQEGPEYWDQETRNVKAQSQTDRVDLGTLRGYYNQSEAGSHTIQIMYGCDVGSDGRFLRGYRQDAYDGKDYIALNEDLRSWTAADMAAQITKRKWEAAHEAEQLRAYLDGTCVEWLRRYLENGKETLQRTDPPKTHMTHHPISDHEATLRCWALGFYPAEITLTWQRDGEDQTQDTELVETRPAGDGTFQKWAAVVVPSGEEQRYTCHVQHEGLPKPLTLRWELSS

[3] = target: A*11:01, P04439; settings: modification not given; remark: listed apart in the source
[4] = target: A*11:01, P04439; settings: modification not given; remark: listed apart in the source
[5] = target: T1, A*03:01, P04439; settings: modification not given
[6] = target: A*11:01, P04439; settings: modification not given; remark: listed apart in the source
[7] = target: A*11:01, P04439; settings: modification not given; remark: listed apart in the source
[8] = target: A*03:01, P04439; settings: modification not given; remark: listed apart in the source
[9] = target: A*03:01, P04439; settings: modification not given; remark: listed apart in the source
[10] = target: A*11:01, P04439; settings: modification not given; remark: listed apart in the source
[11] = target: A*24:02, P16209; settings: modification not given
[12] = target: T2, HLA-A*02:01 (human), P04439; settings: chains peptide; modification not given
T2 chain: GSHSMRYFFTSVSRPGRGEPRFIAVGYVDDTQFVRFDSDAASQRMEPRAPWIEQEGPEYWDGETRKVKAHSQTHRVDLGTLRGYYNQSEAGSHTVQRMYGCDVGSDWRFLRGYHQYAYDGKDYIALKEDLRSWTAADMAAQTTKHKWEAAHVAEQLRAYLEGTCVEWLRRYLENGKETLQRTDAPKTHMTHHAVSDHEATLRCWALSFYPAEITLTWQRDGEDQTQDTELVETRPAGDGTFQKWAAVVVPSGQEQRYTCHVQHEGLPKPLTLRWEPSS

[13] = target: HLA-A*02:01 (human), P04439; assay: ProImmune REVEAL MHC-peptide binding assay, A*02:01, score against positive control
[14] = target: A*24:02, P16209; settings: modification not given; remark: listed apart in the source
[15] = target: HLA-A*32:01; assay: HLA binding; serotype 4; settings: chains peptide; modification not given
[16] = target: HLA-B*40:01; assay: HLA binding; serotype 4; settings: chains peptide; modification not given
[17] = target: HLA-B*15:01; assay: HLA binding; serotype 3; settings: chains peptide; modification not given
[18] = target: HLA-A*32:01; assay: HLA binding; serotype 3; settings: chains peptide; modification not given
[19] = target: HLA-B*40:01; assay: HLA binding; serotype 3; settings: chains peptide; modification not given
[20] = target: HLA-A*32:01; assay: HLA binding; serotype 1; settings: chains peptide; modification not given
[21] = target: HLA-B*40:01; assay: HLA binding; serotype 1; settings: chains peptide; modification not given
[22] = target: A*11:01, P04439; settings: modification not given; remark: listed apart in the source
[23] = target: A*11:01, P04439; settings: modification not given; remark: listed apart in the source
[24] = target: T2, HLA-A*02:01 (human), P04439; settings: chains peptide; modification not given
[25] = target: A*24:02, P16209; settings: modification not given; remark: listed apart in the source
[26] = target: A*24:02, P16209; settings: modification not given; remark: listed apart in the source
[27] = target: B*07:02, P01889; assay: ProImmune REVEAL MHC-peptide binding assay, B*07:02
[28] = target: T3, H-2Kb (mouse), P01901; assay: ProImmune REVEAL MHC-peptide binding assay, H-2Kb
T3 chain: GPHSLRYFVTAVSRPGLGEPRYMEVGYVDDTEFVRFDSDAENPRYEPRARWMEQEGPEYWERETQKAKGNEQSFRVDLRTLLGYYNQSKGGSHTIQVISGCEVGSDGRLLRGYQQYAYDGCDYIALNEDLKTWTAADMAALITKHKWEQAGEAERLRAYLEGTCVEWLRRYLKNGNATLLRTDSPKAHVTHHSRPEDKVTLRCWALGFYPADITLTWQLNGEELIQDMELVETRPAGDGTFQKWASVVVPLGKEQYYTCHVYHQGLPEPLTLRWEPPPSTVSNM

[29] = target: HLA-A*02:01 (human), P04439
[30] = target: B*27:05, P13750; assay: ProImmune REVEAL MHC-peptide binding assay, B*27:05

Binder VTFKNAHAK has an IC50 [1] of 17 nM.

For ALKINWYRK, the IC50 [2] was 193 nM and the IC50 [3] was 376 nM.

QLKLNWFKK gave an IC50 [4] of 778 nM and an IC50 [5] of 151 nM.

VTFKVPHAK gave an IC50 [6] of 14 nM.

With ALTLHWFRK the IC50 [7] was 47 nM and the IC50 [8] was 34 nM.

Work on ALKLSWFKK yielded an IC50 [9] of 42 nM and an IC50 [10] of 59 nM.

Binder SYAMCLNTF has an IC50 [11] of 540 nM.

RQWFFDLPL (modifications not checked) [… (SEQ ID NO: 343)] was tested, and the IC50 [12] was 39 nM and 12 nM and the REVEAL Score [13] was 80.5.

With SYSMCTGKF the IC50 [14] was 115 nM.

Binder KQWFLDLPL […, serotype 4, listing 1 of 2 here] has an IC50 [15] of 8 nM and an IC50 [16] of 398 nM.

Work on RQWFFDLPL yielded an IC50 [17] of 80 nM, an IC50 [18] of 7 nM and an IC50 [19] of 51 nM.

Work on KQWFLDLPL […, serotype 1, listing 2 of 2 here] yielded an IC50 [20] of 8 nM and an IC50 [21] of 398 nM.

VTFKTAHAK showed an IC50 [22] of 16 nM.

Binder VTFKNPHAK has an IC50 [23] of 17 nM.

For KQWFLDLPL (modifications not checked) [… (SEQ ID NO: 341)], the IC50 [24] was 11 nM and the REVEAL Score [13] was 86.

Work on SYVMCTGSF yielded an IC50 [25] of 104 nM.

For SYTMCSGKF, the IC50 [26] was 222 nM.

In the case of LSRNSTHEM (modifications not checked), the REVEAL ® score at 0 h [27] is reported as 124 and the REVEAL ® score at 0 h [28] is reported as 51.1.

Binder QQRVFKEKV (modifications not checked) has an REVEAL ® score at 0 h [28] of 63.4.

Binder YGLNTFTNM (modifications not checked) has an REVEAL ® score at 0 h [28] of 75.4.

Work on LMYFHRRDL (modifications not checked) yielded an REVEAL ® score at 0 h [28] of 54.9.

With TALTGATEI (modifications not checked) [… (SEQ ID NO: 344)] the REVEAL Score [29] was 0.9.

Work on PLSRNSTHE (modifications not checked) yielded an REVEAL ® score at 0 h [27] of 65.

For SRNSTHEMY (modifications not checked), the REVEAL ® score at 0 h [27] was 52.

Work on LMCHATFTM (modifications not checked) yielded an REVEAL ® score at 0 h [28] of 59 and an REVEAL ® score at 0 h [30] of 98.2.

For ARGYISTRV (modifications not checked), the REVEAL ® score at 0 h [30] was 125.

RRGDLPVWL (modifications not checked) was tested, and the REVEAL ® score at 0 h [30] was 145.

For FKLTYQNKV (modifications not checked), the REVEAL ® score at 0 h [30] was 53.7.

Work on FKPGTSGSP (modifications not checked) yielded an REVEAL ® score at 0 h [28] of 45.7.

LAPTRVVAA (modifications not checked) gave an REVEAL ® score at 0 h [28] of 102.

In the case of CHATFTMRL (modifications not checked), the REVEAL ® score at 0 h [28] is reported as 60.3.

HATFTMRLL (modifications not checked) was tested, and the REVEAL ® score at 0 h [28] was 69.5.

ATFTMRLLS (modifications not checked) gave an REVEAL ® score at 0 h [28] of 55.6.
